# Reference: the supplement of paper PMC9112550, “Optimization of the antimicrobial peptide Bac7 by deep mutational scanning” (BMC Biology, 2022)
# System: Escherichia coli TOP10
# Test: shrunken log2 fold change of peptide-encoding DNA abundance (4.5 h post-induction vs induction); higher = less antimicrobial activity (less host growth inhibition)
# Details: time post-induction: 4.5 h; library: site-saturation at positions 5, 18, 19, 20
# 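Further: peptides expressed intracellularly from a pBAD plasmid library in pooled LB shake-flask culture, induced with 0.3% L-arabinose, DNA abundance read by NGS, three biological replicates, DESeq2 with apeglm shrinkage.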
row,Sequence,shrunken log2 fold change
1,RRIRIRPPRLPRPRPRPHLAPRP,0.0435
2,RRIRLRPPRLPRPRPRPKCPPRP,-0.193
3,RRIRVRPPRLPRPRPRPASWPRP,0.294
4,RRIRDRPPRLPRPRPRPAWNPRP,0.428
5,RRIRVRPPRLPRPRPRPSGKPRP,0.0575
6,RRIRWRPPRLPRPRPRPFALPRP,-0.129
7,RRIRPRPPRLPRPRPRPRKFPRP,-0.188
8,RRIRLRPPRLPRPRPRPVIYPRP,-0.224
9,RRIRHRPPRLPRPRPRPDTYPRP,-0.24
10,RRIRDRPPRLPRPRPRPYSVPRP,-0.0716
11,RRIRDRPPRLPRPRPRPHYMPRP,-0.231
12,RRIRERPPRLPRPRPRPLLPPRP,-0.119
13,RRIRMRPPRLPRPRPRPDCNPRP,2.08
14,RRIRTRPPRLPRPRPRPNCFPRP,-0.0362
15,RRIRRRPPRLPRPRPRPISSPRP,0.0497
16,RRIRARPPRLPRPRPRPDTLPRP,-0.0794
17,RRIRHRPPRLPRPRPRPRMRPRP,0.39
18,RRIRFRPPRLPRPRPRPCKWPRP,-0.0168
19,RRIRVRPPRLPRPRPRPEQCPRP,0.171
20,RRIRCRPPRLPRPRPRPYWNPRP,-0.629
21,RRIRVRPPRLPRPRPRPGYPPRP,-0.343
22,RRIRNRPPRLPRPRPRPPKSPRP,0.338
23,RRIRDRPPRLPRPRPRPNMYPRP,-0.229
24,RRIRRRPPRLPRPRPRPFRNPRP,-0.0392
25,RRIRPRPPRLPRPRPRPMFQPRP,-0.241

row,Sequence,shrunken log2 fold change
1,RRIRLRPPRLPRPRPRPAHVPRP,0.241
2,RRIRERPPRLPRPRPRPISSPRP,-0.403
3,RRIRPRPPRLPRPRPRPRYAPRP,0.0891
4,RRIRLRPPRLPRPRPRPEGLPRP,0.206
5,RRIRVRPPRLPRPRPRPTHQPRP,0.209
6,RRIRFRPPRLPRPRPRPLKHPRP,-0.475
7,RRIRKRPPRLPRPRPRPWKHPRP,-0.339
8,RRIRQRPPRLPRPRPRPLIMPRP,-0.0338
9,RRIRIRPPRLPRPRPRPWDKPRP,-0.0749
10,RRIRFRPPRLPRPRPRPLSEPRP,-0.22
11,RRIRRRPPRLPRPRPRPLRSPRP,0.531
12,RRIRARPPRLPRPRPRPMEMPRP,0.163
13,RRIRARPPRLPRPRPRPMAGPRP,0.163
14,RRIRGRPPRLPRPRPRPTVGPRP,0.832
15,RRIRRRPPRLPRPRPRPAMLPRP,1.02
16,RRIRVRPPRLPRPRPRPSQLPRP,-0.234
17,RRIRIRPPRLPRPRPRPPCVPRP,-0.173
18,RRIRMRPPRLPRPRPRPAYQPRP,-0.233
19,RRIRPRPPRLPRPRPRPVENPRP,0.243
20,RRIRRRPPRLPRPRPRPSWLPRP,0.202
21,RRIRFRPPRLPRPRPRPWTMPRP,0.0794
22,RRIRRRPPRLPRPRPRPNTAPRP,0.0812
23,RRIRCRPPRLPRPRPRPFRIPRP,-0.128
24,RRIRVRPPRLPRPRPRPYQRPRP,-0.0149
25,RRIRRRPPRLPRPRPRPPCEPRP,0.195

row,Sequence,shrunken log2 fold change
1,RRIRWRPPRLPRPRPRPMHNPRP,-0.218
2,RRIRHRPPRLPRPRPRPTPTPRP,0.138
3,RRIRQRPPRLPRPRPRPEYVPRP,-0.0886
4,RRIRYRPPRLPRPRPRPVTQPRP,3.05
5,RRIRNRPPRLPRPRPRPNNDPRP,-0.934
6,RRIRPRPPRLPRPRPRPHIFPRP,-0.0487
7,RRIRNRPPRLPRPRPRPMMIPRP,-0.0237
8,RRIRMRPPRLPRPRPRPADTPRP,0.367
9,RRIRKRPPRLPRPRPRPHEDPRP,0.139
10,RRIRSRPPRLPRPRPRPFFNPRP,0.00333
11,RRIRWRPPRLPRPRPRPKEDPRP,0.0809
12,RRIRARPPRLPRPRPRPRFGPRP,0.469
13,RRIRQRPPRLPRPRPRPMWFPRP,0.153
14,RRIRNRPPRLPRPRPRPGTDPRP,-0.0425
15,RRIRWRPPRLPRPRPRPVEGPRP,-0.0555
16,RRIRIRPPRLPRPRPRPIFYPRP,-0.775
17,RRIRFRPPRLPRPRPRPIITPRP,-0.5
18,RRIRRRPPRLPRPRPRPHKNPRP,0.126
19,RRIRCRPPRLPRPRPRPEPGPRP,0.364
20,RRIRVRPPRLPRPRPRPTQDPRP,0.386
21,RRIRHRPPRLPRPRPRPHQPPRP,-0.0185
22,RRIRYRPPRLPRPRPRPISMPRP,0.0342
23,RRIRWRPPRLPRPRPRPVFSPRP,-0.0517
24,RRIRARPPRLPRPRPRPCQEPRP,0.094
25,RRIRARPPRLPRPRPRPDRKPRP,0.0521

row,Sequence,shrunken log2 fold change
1,RRIRSRPPRLPRPRPRPEKSPRP,-0.32
2,RRIRYRPPRLPRPRPRPFCAPRP,-0.415
3,RRIRWRPPRLPRPRPRPKPPPRP,0.821
4,RRIRLRPPRLPRPRPRPCEMPRP,-0.0934
5,RRIRGRPPRLPRPRPRPLGRPRP,0.599
6,RRIRVRPPRLPRPRPRPSEFPRP,-0.233
7,RRIRDRPPRLPRPRPRPICKPRP,0.00282
8,RRIRTRPPRLPRPRPRPYNIPRP,-0.131
9,RRIRKRPPRLPRPRPRPMEHPRP,-0.0568
10,RRIRPRPPRLPRPRPRPRAVPRP,1.68
11,RRIRLRPPRLPRPRPRPRNCPRP,-0.51
12,RRIRNRPPRLPRPRPRPDSIPRP,-0.307
13,RRIRHRPPRLPRPRPRPQAQPRP,-0.208
14,RRIRGRPPRLPRPRPRPNGGPRP,0.0238
15,RRIRKRPPRLPRPRPRPSRKPRP,0.0758
16,RRIRLRPPRLPRPRPRPYFDPRP,-0.255
17,RRIRIRPPRLPRPRPRPSPQPRP,-0.512
18,RRIRHRPPRLPRPRPRPCCGPRP,-0.114
19,RRIRTRPPRLPRPRPRPSQHPRP,-0.387
20,RRIRVRPPRLPRPRPRPLNSPRP,-0.298
21,RRIRMRPPRLPRPRPRPRPVPRP,1.17
22,RRIRIRPPRLPRPRPRPHCCPRP,-0.642
23,RRIRSRPPRLPRPRPRPCVSPRP,-0.391
24,RRIRLRPPRLPRPRPRPKWVPRP,-0.25
25,RRIRQRPPRLPRPRPRPEVHPRP,0.038

row,Sequence,shrunken log2 fold change
1,RRIRARPPRLPRPRPRPNSMPRP,-0.527
2,RRIRQRPPRLPRPRPRPHLDPRP,-0.0359
3,RRIRYRPPRLPRPRPRPPKVPRP,-0.149
4,RRIRCRPPRLPRPRPRPYDQPRP,-0.16
5,RRIRRRPPRLPRPRPRPSKTPRP,-0.0865
6,RRIRPRPPRLPRPRPRPLGLPRP,-0.124
7,RRIRCRPPRLPRPRPRPKRTPRP,0.642
8,RRIRYRPPRLPRPRPRPNHIPRP,-1.27
9,RRIRSRPPRLPRPRPRPHSTPRP,-0.312
10,RRIRFRPPRLPRPRPRPTAPPRP,0.602
11,RRIRPRPPRLPRPRPRPKKRPRP,0.136
12,RRIRMRPPRLPRPRPRPNHGPRP,-0.00135
13,RRIRCRPPRLPRPRPRPYMKPRP,-0.582
14,RRIRVRPPRLPRPRPRPKMAPRP,-0.222
15,RRIRQRPPRLPRPRPRPRIEPRP,0.111
16,RRIRFRPPRLPRPRPRPSEPPRP,-0.0424
17,RRIRRRPPRLPRPRPRPKKDPRP,0.176
18,RRIRTRPPRLPRPRPRPPHEPRP,0.373
19,RRIRDRPPRLPRPRPRPCRMPRP,0.0112
20,RRIRCRPPRLPRPRPRPSYGPRP,-0.627
21,RRIRHRPPRLPRPRPRPSNCPRP,-0.337
22,RRIRFRPPRLPRPRPRPVSYPRP,0.0168
23,RRIRKRPPRLPRPRPRPVTIPRP,0.0361
24,RRIRWRPPRLPRPRPRPQKGPRP,-0.214
25,RRIRRRPPRLPRPRPRPWHCPRP,-0.18

row,Sequence,shrunken log2 fold change
1,RRIRARPPRLPRPRPRPKHSPRP,0.0875
2,RRIRCRPPRLPRPRPRPKCLPRP,0.036
3,RRIRHRPPRLPRPRPRPHVKPRP,-0.00471
4,RRIRHRPPRLPRPRPRPHRGPRP,-0.0108
5,RRIRYRPPRLPRPRPRPGDPPRP,-0.223
6,RRIRGRPPRLPRPRPRPQPSPRP,0.65
7,RRIRERPPRLPRPRPRPEQCPRP,-0.0274
8,RRIRQRPPRLPRPRPRPGPGPRP,0.507
9,RRIRFRPPRLPRPRPRPLHLPRP,-0.166
10,RRIRARPPRLPRPRPRPPLIPRP,0.299
11,RRIRFRPPRLPRPRPRPPVLPRP,0.006
12,RRIRMRPPRLPRPRPRPYMMPRP,-0.111
13,RRIRNRPPRLPRPRPRPWEDPRP,-0.0966
14,RRIRWRPPRLPRPRPRPFDFPRP,-0.159
15,RRIRKRPPRLPRPRPRPCDMPRP,-0.00141
16,RRIRLRPPRLPRPRPRPQQYPRP,-0.277
17,RRIRPRPPRLPRPRPRPWKIPRP,-0.244
18,RRIRDRPPRLPRPRPRPNEIPRP,-0.0208
19,RRIRRRPPRLPRPRPRPFGHPRP,0.0281
20,RRIRRRPPRLPRPRPRPKMIPRP,0.103
21,RRIRERPPRLPRPRPRPVPGPRP,0.186
22,RRIRHRPPRLPRPRPRPGTSPRP,-0.0565
23,RRIRYRPPRLPRPRPRPSYSPRP,-0.438
24,RRIRVRPPRLPRPRPRPNLNPRP,-0.342
25,RRIRTRPPRLPRPRPRPILRPRP,-0.0606
